Measured values as given in US20260125468A1 (NONA BIOSCIENCES SUZHOU, published 2026).
Numbering of substitutions follows the chain as printed. In names and notes the source's numbering stands.

Key:
[1] = molecular target: T1, CD3/TCR complex on Jurkat cells (ATCC, TIB-152) and Jurkat-NFAT-Luc reporter cells (human, UniProt P07766 23-207; P04234 22-171; P09693 23-182; P20963 22-164); experiment: FACS on Jurkat cells, purified antibody [A]
T1 construct: whole, on cells; also called CD3/TCR-positive Jurkat cells; TCR/CD3 complex
T1 sequence (P09693 23-182, chain 3 of 2): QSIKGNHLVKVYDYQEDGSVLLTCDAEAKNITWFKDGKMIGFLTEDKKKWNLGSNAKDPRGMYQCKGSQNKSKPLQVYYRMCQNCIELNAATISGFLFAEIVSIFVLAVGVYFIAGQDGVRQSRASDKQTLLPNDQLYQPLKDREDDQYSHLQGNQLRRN
T1 sequence (P20963 22-164, chain 4 of 2): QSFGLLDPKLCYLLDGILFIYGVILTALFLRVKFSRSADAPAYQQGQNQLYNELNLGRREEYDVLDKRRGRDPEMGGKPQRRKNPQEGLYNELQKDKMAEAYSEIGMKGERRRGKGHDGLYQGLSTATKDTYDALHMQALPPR
Procedure: The binding activities to target cells for the supernatants A1-monoFc (PR005860) and E2-monoFc (PR005861) were evaluated by FACS. The supernatants of the recombinant antibodies (i.e. A1-monoFc, E2-monoFc) were diluted from bulk solution to 8 different concentrations by 3-fold serial dilution. […] The cells were washed twice with staining buffer and subjected to flow cytometry. The data were processed by FlowJo v10 (FlowJo, LLC) and non-linear curve fitting analyzed by GraphPad Prism 8.
The binding activities to Jurkat and J.RT3-T3.5 cells for purified A1-HCAb (PR006364), E2-HCAb (PR006365) were determined by FACS, following the method described in Example 2. As shown in (A) and (B of FIG. 8, PR006364 and PR006365 can bind to Jurkat cells but not to J.RT3-T3.5 cells, which is consistent with the result in FIG. 1.

[2] = molecular target: human CD3E&D heterodimer protein (construct not specified; FIG. 9A and FIG. 12) (human, UniProt P07766 23-126; P04234 22-105); experiment: ELISA on coated human CD3e&d heterodimer protein (construct not named on the sheet)
[3] = molecular target: T2, Biotinylated human CD3e&d protein (Acro Biosystems, CDD-H82W6) (human, UniProt P07766 23-126; P04234 22-105, biotinylated protein; chain and site not stated); experiment: BLI (Octet RED96e), biotinylated antigen on SA biosensors, antibody 0.375-12 nM
T2 construct: Bought protein loaded on SA Octet biosensors; also called human CD3 protein
Procedure: To determine the binding affinities of anti-CD3 antibodies to human or cynomolgus monkey CD3e&d heterodimer proteins, bio-layer interferometry (BLI) assays were carried out by using Octet® RED96e.
Biotinylated human CD3e&d protein (Acro Biosystems, CDD-H82W6) or biotinylated cynomolgus CD3e&d protein (Acro Biosystems, CDD-C82W6) was first loaded onto the surface of SA Octet biosensors (Sartorius, 18-5019) to reach capture levels between 0.5-0.8 nm. The loaded biosensors were then dipped in wells containing 2-fold serial dilutions of testing antibodies to detect association signals, followed by dissociation steps in wells containing kinetic buffer. The association phase was 180 seconds, and the dissociation phase was 900 seconds. The sensorgrams were recorded, and the reference signals were subtracted before curve fitting using ForteBio Data Analysis 11.0 software. Association rates (kon) and dissociation rates (koff) were calculated using a simple one-to-one Langmuir binding model. The equilibrium dissociation constant (KD) was calculated as the ratio of koff/kon.

[4] = molecular target: T3, CD3 on human T cells (human PBMCs or isolated T cells used as effector cells) (human, UniProt P07766 23-207; P04234 22-171; P09693 23-182); experiment: cell-based or functional assay
T3 sequence (P07766 23-207, chain 1 of 3): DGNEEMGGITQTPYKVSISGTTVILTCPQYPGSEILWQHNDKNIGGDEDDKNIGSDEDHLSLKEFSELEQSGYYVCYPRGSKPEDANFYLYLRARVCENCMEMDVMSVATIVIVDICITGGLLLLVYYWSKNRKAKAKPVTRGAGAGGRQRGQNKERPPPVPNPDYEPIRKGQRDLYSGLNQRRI
T3 sequence (P04234 22-171, chain 2 of 3): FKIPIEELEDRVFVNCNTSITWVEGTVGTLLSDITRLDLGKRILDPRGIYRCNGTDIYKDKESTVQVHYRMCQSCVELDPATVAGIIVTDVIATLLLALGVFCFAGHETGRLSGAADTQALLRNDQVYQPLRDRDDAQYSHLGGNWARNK
T3 sequence (P09693 23-182, chain 3 of 3): as the sequence (P09693 23-182, chain 3 of 2) above

[5] = molecular target: T3, CD3 on human T cells (human PBMCs or …); experiment: cell-based or functional assay; remark: listed apart in the source
[6] = molecular target: T4, human CD3e&d-llamaFc; experiment: ELISA, plate coated with human CD3e&d-llamaFc at 1 µg/mL, anti-human IgG Fc-HRP [A]
T4 construct: also called hCD3e&d-llamaFc; Human CD3 epsilon & CD3 delta Heterodimer Protein fused with Llama Fc (Acro Biosystems, CDD-H5258); not shown: The llama Fc, any linker to it, and which chain or chains carry it
T4 epsilon: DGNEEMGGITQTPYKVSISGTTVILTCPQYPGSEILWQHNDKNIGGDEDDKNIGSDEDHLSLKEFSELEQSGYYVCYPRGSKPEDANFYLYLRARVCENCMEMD
T4 delta: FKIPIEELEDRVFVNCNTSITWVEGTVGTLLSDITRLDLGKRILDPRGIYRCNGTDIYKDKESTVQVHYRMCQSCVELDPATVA
Procedure: (§1) ELISA assays were conducted as briefly described: CD3 proteins were coated onto ELISA plates at 1 μg/mL; testing antibodies OKT3 and PR006364 (A1-HCAb) were diluted from 2 μg/mL to 8 different concentrations by 3-fold serial dilution, or testing antibodies PR006370 (SP34) and PR010991 (3G11-HCAb) were diluted from 100 nM to 11 different concentrations by 2-fold serial dilution; secondary antibody (anti-human IgG Fc-HRP) was used to detect PR006364, PR006370 and PR010991, and secondary antibody (anti-mouse IgG Fc-HRP) was used to detect OKT3 binding signal. The absorption signal at 450 nm (OD450) was recorded by plate reader (Molecular Devices, SpectraMax), and the data were processed and non-linear curve fitting analyzed by GraphPad Prism 8.

[7] = molecular target: T5, cynoCD3e&d-his, Cynomolgus CD3 epsilon & CD3 delta Heterodimer Protein (Acro Biosystems, CDD-C52W4) (Cynomolgus, UniProt Q95LI5 22-117; Q95LI8 22-105); experiment: ELISA, plate coated with cyno CD3e&d-his at 1 µg/mL, anti-human IgG Fc-HRP [C]
T5 construct: Bought protein; also called cynomolgus CD3E&D heterodimer protein; not shown: His Tag fused to C-terminus of CD3 epsilon chain; Flag Tag fused to C-terminus of CD3 delta chain
T5 sequence (Q95LI5 22-117, stated change not applied, chain 1 of 2): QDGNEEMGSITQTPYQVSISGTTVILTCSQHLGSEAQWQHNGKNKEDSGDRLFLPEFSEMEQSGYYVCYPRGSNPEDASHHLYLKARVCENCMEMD
T5 sequence (Q95LI8 22-105, stated change not applied, chain 2 of 2): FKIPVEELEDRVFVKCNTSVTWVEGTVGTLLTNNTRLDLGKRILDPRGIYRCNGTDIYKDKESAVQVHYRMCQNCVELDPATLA
Procedure: as §1

[8] = molecular target: T6, hCD3e&d-his, Human CD3 epsilon & CD3 delta Heterodimer Protein with His Tag (Acro Biosystems, CDD-H52W1) (Human, UniProt P07766 23-126; P04234 22-105); experiment: ELISA, plate coated with human CD3e&d-his at 1 µg/mL, anti-human IgG Fc-HRP [B]
T6 construct: Bought protein; also called human CD3E&D heterodimer protein; not shown: His Tag fused to C-terminus of CD3 epsilon chain
Procedure: as §1

[9] = molecular target: T7, hCD3e&g-his, Human CD3 epsilon & CD3 gamma Heterodimer Protein with His Tag (Acro Biosystems, CDG-H52W5) (Human, UniProt P07766 23-126; P09693 23-116); experiment: ELISA, plate coated with human CD3e&g-his at 1 µg/mL, anti-human IgG Fc-HRP [D]
T7 construct: Bought protein; also called human CD3E&G heterodimer protein; not shown: His Tag fused to C-terminus of CD3 epsilon chain
T7 sequence (P09693 23-116, chain 2 of 2, one chain of several): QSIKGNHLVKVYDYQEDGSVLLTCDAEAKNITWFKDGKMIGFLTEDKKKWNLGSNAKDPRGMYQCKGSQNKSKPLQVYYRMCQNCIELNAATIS
Procedure: as §1

[10] = molecular target: T8, hCD3e-his, Human CD3 epsilon Protein with His Tag (Acro Biosystems, CDE-H5223) (Human, UniProt P07766 23-126); experiment: ELISA, plate coated with human CD3e-his at 1 µg/mL, anti-human IgG Fc-HRP [E]
T8 construct: Bought protein; also called human CD3E monomeric protein; monomeric CD3E; not shown: His Tag
Procedure: as §1

B1: PR006365, anti-CD3 E2-HCAb hIgG1(C220S, AAG) (antibody, V domains shown)
VH: EVQLVESGGGLVQAGGSLRLSCAASGRTNGIPAMAWFRQAPGKEREFVAMAWSGGGTIYGDSVKNRFTISRNNAQNTISLQMSSLRPEDTALYFCAAGRTTSNKADHYNYWGQGTQVTVSS
notes: Heavy-chain-only antibody, human IgG1 Fc (C220S, L234A, L235A, P329G)
- EC50 (read off the curve) [1]: ~9 nM

B2: PR011628, anti-CD3 S135 HCAb hIgG1(C220S,AAG) (antibody, V domains shown)
VH: EVQLLESGGGLVQPGGSLRLSCAASGRTSGIPAMSWVRQAPGKGLEWVAMAWSGGGTIYADSVKGRFTISRDNSKNTLYLQMNSLRAEDTAVYYCAAGRSTSNRADQYNYWGQGTLVTVSS
notes: Humanized variant of PR006364; heavy-chain-only antibody
- binding result [2]: binds

B3: PR011629, anti-CD3 S136 HCAb hIgG1(C220S,AAG) (antibody, V domains shown)
VH: B2 VH with G44E, L45R, W47F, L116Q
notes: as for B2
- Kd [3]: 0.168 nM
- koff [3]: 0.00014 s⁻¹
- kon [3]: 833000 M⁻¹ s⁻¹

B4: PR011630, anti-CD3 S137 HCAb hIgG1(C220S,AAG) (antibody, V domains shown)
VH: B2 VH with G44E, L45R, W47F, R104Y, L116Q
notes: as for B2
- binding result [2]: binds

B5: PR011632, anti-CD3 S140 HCAb hIgG1(C220S,AAG) (antibody, V domains shown)
VH: B2 VH with L5V, S35A, V37F, A97R
notes: as for B2
- binding result [2]: binds

B6: PR011631, anti-CD3 S138 HCAb hIgG1(C220S,AAG) (antibody, V domains shown)
VH: B2 VH with R104Y
notes: as for B2
- binding result [2]: binds

B7: PR006002, anti-B7H4xCD3 VH(A1)-Fc-scFv(PR003366), hIgG1(dCH1, KiH, LALA) (bispecific antibody)
chain 1: not shown
chain 2: EIVMTQSPASLSVSPGERATLSCRASQSVSSNLAWYQQKPGQAPRLLIYGASTRATGIPARVSGGGSGTEFTLTISSLQSEDFAVYYCQQYKNWPFTFGPGTKLEIKGGGGSGGGGSGGGGSGGGGSQVQLVQSGAEVKKPGSSMRVSCKASEDTFSSYAISWVRQAPGQGLEWMGGTAPIFGTTNYAQKFQGRVTITADKSTSTAYMELSSLRSEDTAVYYCARGGPYFDYWGQGTLVTVSSASEPKSSDKTHTCPPCPAPEAAGGPSVFLFPPKPKDTLMISRTPEVTCVVVDVSHEDPEVKFNWYVDGVEVHNAKTKPREEQYNSTYRVVSVLTVLHQDWLNGKEYKCKVSNKALPAPIEKTISKAKGQPREPQVCTLPPSREEMTKNQVSLSCAVKGFYPSDIAVEWESNGQPENNYKTTPPVLDSDGSFFLVSKLTVDKSRWQQGNVFSCSVMHEALHNHYTQKSLSLSPGK
- EC50 of T cell-mediated cytotoxicity to MDA-MB-468 (RTCA, human T cells, E:T 10:1) [4]: 0.00111 nM
- EC50 of T cell-mediated cytotoxicity to MDA-MB-468 (RTCA) [5]: 0.033 nM
- Max cytotoxicity (%) of T cell-mediated cytotoxicity to MDA-MB-468 (RTCA) [5]: 94.4%

B8: PR010983, anti-B7H4xCD3 S136-Fc-scFv(PR003366), hIgG1(dCH1, KIH, AAA) (bispecific antibody)
chain 1: EVQLLESGGGLVQPGGSLRLSCAASGRTSGIPAMSWVRQAPGKEREFVAMAWSGGGTIYADSVKGRFTISRDNSKNTLYLQMNSLRAEDTAVYYCAAGRSTSNRADQYNYWGQGTQVTVSSASEPKSSDKTHTCPPCPAPEAAGAPSVFLFPPKPKDTLMISRTPEVTCVVVDVSHEDPEVKFNWYVDGVEVHNAKTKPREEQYNSTYRVVSVLTVLHQDWLNGKEYKCKVSNKALPAPIEKTISKAKGQPREPQVYTLPPCREEMTKNQVSLWCLVKGFYPSDIAVEWESNGQPENNYKTTPPVLDSDGSFFLYSKLTVDKSRWQQGNVFSCSVMHEALHNHYTQKSLSLSPGK
chain 2: B7 chain 2 with G267A
- EC50 of T cell-mediated cytotoxicity to MDA-MB-468 (RTCA, human T cells, E:T 10:1) [4]: 0.0602 nM

B9: PR010984, anti-B7H4xCD3 S137-Fc-scFv(PR003366), hIgG1(dCH1, KIH, AAA) (bispecific antibody)
chain 1: B8 chain 1 with R104Y
chain 2: B7 chain 2 with G267A
- EC50 of T cell-mediated cytotoxicity to MDA-MB-468 (RTCA, human T cells, E:T 10:1) [4]: 0.576 nM

B10: PR010987, anti-B7H4xCD3 S140-Fc-scFv(PR003366), hIgG1(dCH1, KIH, AAA) (bispecific antibody)
chain 1: B8 chain 1 with L5V, S35A, V37F, E44G, R45L, F47W, A97R, Q116L
chain 2: B7 chain 2 with G267A
- EC50 of T cell-mediated cytotoxicity to MDA-MB-468 (RTCA, human T cells, E:T 10:1) [4]: 0.263 nM

B11: PR010985, anti-B7H4xCD3 S138-Fc-scFv(PR003366), hIgG1(dCH1, KIH, AAA) (bispecific antibody)
chain 1: B8 chain 1 with E44G, R45L, F47W, R104Y, Q116L
chain 2: B7 chain 2 with G267A
- EC50 of T cell-mediated cytotoxicity to MDA-MB-468 (RTCA, human T cells, E:T 10:1) [4]: 2.91 nM

B12: PR006364, anti-CD3 A1-HCAb hIgG1(C220S, AAG) (antibody, V domains shown)
VH: RIRLVESGGGLVQAGGSLRLSCAASGRTSGIPAMAWFRQAPGKEREFVAMAWSGGGTIYGDSVKNRFTISRDNTQNTIFLQMNSLKPEDTALYYCAAGRSTSNRADQYNYWGQGTQVTVSS
notes: Heavy-chain-only antibody, VHH fused to conventional human IgG1 Fc (C220S, L234A, L235A, P329G)
- Kd [3]: 0.0342 nM
- koff [3]: 2.49e-05 s⁻¹
- kon [3]: 727000 M⁻¹ s⁻¹
- EC50 (read off the curve) [2]: ~0.7 nM
- EC50 (read off the curve) [1]: ~2 nM
- EC50 (read off the curve) [6]: ~0.03 µg/mL

B13: PR006370, anti-CD3 SP34 chimeric hIgG1(AAG) (antibody, V domains shown)
VH: EVQLVESGGGLVQPKGSLKLSCAASGFTFNTYAMNWVRQAPGKGLEWVARIRSKYNNYATYYADSVKDRFTISRDDSQSILYLQMNNLKTEDTAMYYCVRHGNFGNSYVSWFAYWGQGTLVTVSA
VL: QAVVTQESALTTSPGETVTLTCRSSTGAVTTSNYANWVQEKPDHLFTGLIGGTNKRAPGVPARFSGSLIGDKAALTITGAQTEDEAIYFCALWYSNLWVFGGGTKLTVLG
notes: Mouse/human chimeric antibody, human IgG1 Fc-silent variant (L234A, L235A, P329G)
- EC50 (read off the curve) [7]: ~0.7 nM
- EC50 (read off the curve) [8]: ~0.6 nM
- EC50 (read off the curve) [9]: ~0.8 nM
- EC50 (read off the curve) [10]: ~0.8 nM
